This passage reports self-cleavage results from the RNAGym collection of RNA variant scans (doi:10.7554/elife.90254).

The chains are these.
B1: LINE1-full (parent)
chain: UACGUAGGUGGUUUUCCCCUGAUAGUGCUAAGGGGGCCUGGAAGUUUGGACUGGGCAGAGCUCAACACAGCGUGGCAAAGUGGCUGUGGCUAGACUGCCUCUCUGGAUUCCUCGUCACUCAGCAGGGCAUCUCUGAGAGAAAUGCC

In this series the parent is B1. Nature of the series: self-cleavage, relative activity (ratio to wild type); higher = more cleavage; in vitro, sequencing; the parent is a self-cleaving ribozyme.
For the variant G41U A140G, the self-cleavage amounted to 1.14.
With A42G G75A the figure was 1.14; with A43C A92G, 0.18.
The figure for U39C G83U is 0.52.
With A42G G80C, the self-cleavage stood at 0.62.
With U39C G86A the figure was 0.09; with A42U U132C, 1.01; with U39A U134C, 1.3.
Turning to A42U A107U, the self-cleavage is 0.92.
On to U39G G135A, for which the self-cleavage came to 1.86.
With A42G C113U, the self-cleavage was 1.12.
The figure for A42G U45C is 1.2; for U39C A140G it is 1.3.
With U39C A140U the figure was 1.22.
With A42G C51A the figure was 2.3; with G41A A129U, 1.42.
On to U39C G127U, for which the self-cleavage is 0.87.
Take G40A A117G: the self-cleavage came to 1.03.
The figure for G40A A57U is 0.05; for G41U U45A it is 1.14; for A43C A141U it is 1.46.
The figure for U39C A124U is 1.26; for A43C U45C it is 0.51.
A43C U45G: the self-cleavage came to 0.66.
For the variant G41C U134C, the self-cleavage came to 1.76.
Turning to U39C G75A, the self-cleavage turned out to be 0.83.
The figure for G40C A42G is 1.09; for A42G G88A it is 0.09; for U39C it is 1.14.
With U39G the figure was 1.46.
The figure for A43C is 1.35.
Turning to A42G U73C, the self-cleavage turned out to be 1.5.
With G40A C145U the figure was 0.64; with U39G U112A, 1.65.
With G40A U115C the figure was 1.18.
With G40A U115A, the self-cleavage came out at 1.17.
The figure for G41U U62A is 0.04.
Turning to G41U U62C, the self-cleavage was 0.04.
The figure for U39G A64G is 0.09; for U39C G126A it is 1.18; for A42U U85C it is 0.13.
For G41U C103A, the self-cleavage was found to be 1.11.
Regarding U39C U91A, the self-cleavage came out at 0.39.
In the case of G41A A94G, the self-cleavage came to 0.13.
With A42G G139A the figure was 1.28; with A42U U108C, 1.33; with A42G G83A, 0.96.
In the case of A42G A59G, the self-cleavage was determined as 0.11.
With G41A U62C, the self-cleavage worked out at 0.08.
With U39G A65G the figure was 0.15.
As for A42U U104A, the self-cleavage came to 1.15.
Consider U39G G74A, for which the self-cleavage came out at 0.97.
The figure for A42U is 0.98; for A42C it is 0.92.
The figure for A42G is 1.38; for G40A U130A it is 1.36.
The figure for G40A U130G is 1.19; for G41A U112C it is 1.67; for U39C C63A it is 0.05.
Regarding U39C C63U, the self-cleavage stood at 0.25.
For the variant A42U A92G, the self-cleavage amounted to 0.09.
The figure for A42G G74A is 0.8; for G40A A94U it is 0.26.
For G40A U119C, the self-cleavage came out at 0.84.
With U39C A94G, the self-cleavage is 0.11.
On to G40A A64C, for which the self-cleavage is 0.18.
The figure for G40A A64U is 0.38.
The figure for U39G C123U is 0; for U39C A77U it is 0.96.
With A42G G44A the figure was 1.27; with A42U U47C, 1.7; with A42C A59G, 0.45.
Take A42G U119C: the self-cleavage came out at 1.35.
In the case of G40U A50G, the self-cleavage was determined as 0.
Turning to U39C C123U, the self-cleavage is 0.9.
Take A42U A78G: the self-cleavage came out at 0.88.
With G40A A59G the figure was 0.06; with U39G U132C, 2.44; with U39C G122C, 0.96.
The figure for U39C C99U is 0.5.
With U39C C71A, the self-cleavage turned out to be 0.09.
Consider A42G G93U, for which the self-cleavage came to 0.05.
With A42G G93A the figure was 0.01; with U39C A121U, 1.04.
With U39C A121G the figure was 1.67.
With U39C A121C the figure was 1.37.
Turning to G41A U119C, the self-cleavage came out at 1.15.
For the variant A42U A50G, the self-cleavage came to 0.92.
With A42G A107G, the self-cleavage was determined as 1.7.
With A42U U52C, the self-cleavage amounted to 0.54.
The figure for A42G U134C is 1.36; for A42U A117U it is 1.28; for A42U A117G it is 1.21.
With A42G G135A the figure was 1.69; with U39C A79U, 1.2; with A42G A121U, 1.4.
With A42G A121G the figure was 1.59.
With A42U C120U, the self-cleavage is 0.4.
U39G C103A: the self-cleavage was 1.85.
As for U39C C90U, the self-cleavage was 0.07.
In the case of U39C C90G, the self-cleavage was determined as 0.03.
The figure for A42G A69C is 0.06.
The figure for A42G A69U is 0.04.
The figure for U39C U102A is 1.03.
U39C U132A: the self-cleavage was 1.46.
On to U39C U132C, for which the self-cleavage turned out to be 1.32.
With A42C A94G the figure was 0.28; with A42G U85A, 0.15; with G41U U115A, 1.29.
For the variant G40A A124G, the self-cleavage came out at 0.52.
The figure for U39C A92G is 0.09; for U39C A92U it is 0.58; for G41A A65G it is 0.03.
On to G40A A136G, for which the self-cleavage stood at 0.85.
As to A42U A141G, the self-cleavage came out at 0.9.
As for A42G U96C, the self-cleavage amounted to 0.12.
The figure for A42G U96G is 0.
With A42U U130C, the self-cleavage came to 1.32.
For the variant U39C C131U, the self-cleavage worked out at 1.
As for A43C A79G, the self-cleavage was 0.75.
The figure for A42G G127U is 1.9; for G40A G53A it is 0.74.
With G40A U104A the figure was 0.75; with U39C A42U, 0.73; with U39C U87C, 0.17.
Take G41A A57U: the self-cleavage was determined as 0.11.
With G40A A69G, the self-cleavage was 0.49.
In the case of A42G U115C, the self-cleavage stood at 1.67.
For the variant G40A A43G, the self-cleavage came to 1.
With A42G A64G, the self-cleavage came out at 0.28.
As for G41A A59G, the self-cleavage came out at 0.07.
For G40A U85A, the self-cleavage was found to be 0.02.
In the case of G40A U85C, the self-cleavage was 0.04.
With A42G A124G the figure was 0.87.
As to A42G A124C, the self-cleavage was 2.96.
On to G41U U143C, for which the self-cleavage is 1.47.
With A42G C66U the figure was 0.01; with U39C A69G, 0.39; with A42G A129G, 1.68.
With A42G G82A the figure was 1.95; with G41C U115A, 1.88.
The figure for U39C A50G is 0.77; for G40A A42G it is 1.07; for A42U A142U it is 0.57.
With U39C A142G, the self-cleavage was 1.18.
As for A42C G93A, the self-cleavage was found to be 0.03.
As for G41A A121G, the self-cleavage is 1.15.
The figure for A42G C99U is 1.11; for A42U C84U it is 0.09; for A42U U91C it is 0.27.
The figure for A42G G54C is 0.84; for A42G G54U it is 1.06; for G40A U46A it is 1.23.
In the case of G40A U46C, the self-cleavage was determined as 1.4.
The figure for A42G U104C is 1.81; for A42G U104A it is 1.13; for U39C A65G it is 0.09.
As for U39C G53U, the self-cleavage came out at 1.26.
The figure for G40A A79U is 1.13; for U39C C116U it is 1.05; for A42G U47C it is 1.54.
With A42G U47G the figure was 0.88; with G40A A140G, 1.12.
The figure for A42G U108A is 0.71.
As for U39C U104C, the self-cleavage is 1.77.
On to G41A U85G, for which the self-cleavage is 0.09.
With G41A U85A the figure was 0.
